In PMC13185157:

Target: GFP-LNX1
Assay: flow cytometry on cells; α-GFP-Nb yeast incubated with lysates of HEK293 cells expressing FLAG-tagged partner plus GFP-LNX1 or GFP; washed once; anti-FLAG antibody; percent of positive cells

Sequence of FLAG-Liprin-α1 (Q13136 whole entry): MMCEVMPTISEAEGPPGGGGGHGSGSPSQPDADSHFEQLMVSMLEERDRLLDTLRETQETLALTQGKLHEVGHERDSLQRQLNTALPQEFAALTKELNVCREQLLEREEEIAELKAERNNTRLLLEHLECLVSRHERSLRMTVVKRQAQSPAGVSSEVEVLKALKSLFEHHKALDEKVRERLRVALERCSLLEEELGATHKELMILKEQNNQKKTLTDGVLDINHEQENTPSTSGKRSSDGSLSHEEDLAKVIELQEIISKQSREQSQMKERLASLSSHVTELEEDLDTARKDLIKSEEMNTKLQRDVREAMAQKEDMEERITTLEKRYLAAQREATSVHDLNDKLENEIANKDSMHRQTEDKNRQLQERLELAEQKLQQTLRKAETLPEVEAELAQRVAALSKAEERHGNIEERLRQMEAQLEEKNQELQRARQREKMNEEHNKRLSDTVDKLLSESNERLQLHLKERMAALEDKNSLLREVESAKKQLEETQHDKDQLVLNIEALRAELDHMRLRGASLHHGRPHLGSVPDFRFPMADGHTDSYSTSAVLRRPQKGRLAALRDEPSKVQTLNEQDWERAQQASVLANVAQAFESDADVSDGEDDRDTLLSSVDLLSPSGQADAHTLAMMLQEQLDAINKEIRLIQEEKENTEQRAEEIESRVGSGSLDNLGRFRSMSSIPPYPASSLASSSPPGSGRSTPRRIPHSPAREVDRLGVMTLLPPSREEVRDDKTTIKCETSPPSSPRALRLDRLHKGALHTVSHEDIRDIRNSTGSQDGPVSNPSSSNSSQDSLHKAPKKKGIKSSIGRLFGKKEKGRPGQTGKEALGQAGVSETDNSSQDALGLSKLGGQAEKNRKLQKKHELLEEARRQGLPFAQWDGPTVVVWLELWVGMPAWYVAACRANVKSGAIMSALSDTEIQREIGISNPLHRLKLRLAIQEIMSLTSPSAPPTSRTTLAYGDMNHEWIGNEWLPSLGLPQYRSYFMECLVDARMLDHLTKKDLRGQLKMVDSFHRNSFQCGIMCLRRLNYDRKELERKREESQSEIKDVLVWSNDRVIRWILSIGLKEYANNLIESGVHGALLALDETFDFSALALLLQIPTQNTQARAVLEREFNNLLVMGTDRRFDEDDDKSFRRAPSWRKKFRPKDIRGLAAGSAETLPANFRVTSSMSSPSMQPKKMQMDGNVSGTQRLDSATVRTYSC
Sequence of FLAG-ZNF24 (P17028 whole entry): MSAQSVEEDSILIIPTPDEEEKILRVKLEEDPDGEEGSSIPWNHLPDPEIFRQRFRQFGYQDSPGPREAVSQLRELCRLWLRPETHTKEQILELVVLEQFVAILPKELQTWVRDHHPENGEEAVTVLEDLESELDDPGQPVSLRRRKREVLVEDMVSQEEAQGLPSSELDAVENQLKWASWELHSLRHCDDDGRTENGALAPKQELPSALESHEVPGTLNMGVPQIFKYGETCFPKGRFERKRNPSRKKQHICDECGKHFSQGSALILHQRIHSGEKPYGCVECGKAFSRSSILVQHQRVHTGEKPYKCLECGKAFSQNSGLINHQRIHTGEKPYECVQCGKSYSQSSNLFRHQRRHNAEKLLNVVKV
Sequence of FLAG-NUMB (Q9QZS3 whole entry): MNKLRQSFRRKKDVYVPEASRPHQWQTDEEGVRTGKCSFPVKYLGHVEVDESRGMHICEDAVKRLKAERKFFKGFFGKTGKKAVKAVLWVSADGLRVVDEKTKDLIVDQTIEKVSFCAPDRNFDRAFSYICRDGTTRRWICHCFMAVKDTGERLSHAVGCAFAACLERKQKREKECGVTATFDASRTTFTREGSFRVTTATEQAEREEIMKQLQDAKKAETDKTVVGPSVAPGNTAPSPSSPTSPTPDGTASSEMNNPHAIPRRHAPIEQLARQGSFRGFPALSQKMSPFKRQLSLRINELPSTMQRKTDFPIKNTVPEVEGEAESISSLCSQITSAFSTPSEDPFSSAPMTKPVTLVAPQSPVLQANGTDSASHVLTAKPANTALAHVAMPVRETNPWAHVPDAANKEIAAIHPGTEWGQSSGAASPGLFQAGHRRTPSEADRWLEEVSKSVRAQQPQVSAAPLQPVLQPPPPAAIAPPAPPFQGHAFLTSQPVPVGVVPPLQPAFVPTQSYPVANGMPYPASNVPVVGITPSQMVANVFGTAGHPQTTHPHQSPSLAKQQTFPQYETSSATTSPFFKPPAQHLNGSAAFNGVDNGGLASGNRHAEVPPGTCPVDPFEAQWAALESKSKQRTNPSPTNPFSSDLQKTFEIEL

| percent of cells positively labelled with anti-FLAG antibody [%] | percent of FLAG positive cells [%] | Substance |
| --- | --- | --- |
| 30 | – | FLAG-Liprin-α1 (from UniProt Q13136 1-1202) (natural protein) |
| 10 | – | FLAG-NUMB (from UniProt Q9QZS3 1-653) (natural protein) |
| – | 77 | FLAG-ZNF24 (from UniProt P17028 1-368) (natural protein) |
